Source: the supplement of paper PMC10567573

B1: PCDHGA10 (parent)
chain: FGIEIEVTDINDNAPKFQAENLDV
B2: FUT8 (parent)
chain: NWRYATGGWETVFRPVSETCTDRS

Variants of: B1
Test: protein stability index of a GFP-peptide fusion (GPS, HEK-293T) (PSI 1-6); higher = more stable
Conditions: c terminus: a fixed tail appended
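Note: lentivirally expressed fusions sorted by FACS into six bins by GFP to DsRed ratio, PSI derived from sequencing read proportions per bin multiplied by bin number.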

Protein stability index: each site, then its substitutions
A14: M 2.42; V 3.4
V24: Q 3.62; R 3.71; E 3.46; C 2.8
A19: F 2.42; R 3; Y 1.95; Q 3.32; T 2.84
L22: D 4.21; Q 3.71
I10: W 2.03; S 3.91; M 3.28; N 4.14; A 3.61
E4: P 4.33; V 2.24; M 1.73
T8: A 2.88; R 2.32
F1: I 2.57
F17: D 4.36; Q 4.14; W 2.52; K 4.42; Y 3.18; C 3.73
V7: I 2.29
N11: K 2.99; E 2.94; A 2.88
D9: G 2.15; M 1.96
I3: H 4.88
N13: P 2.83
D23: G 2.29; M 2.52
D12: V 2.05; Q 2.71
E20: W 2.11
I5: M 3.86
N21: W 1.37
G2: M 1.9

Variants of: B2
Test: as above
Conditions: c terminus: a fixed tail appended

Protein stability index of substitutions, site by site:
N1: A 1.16; C 2.35; D 1.7; E 2.44; G 2.12; H 2.74; I 3.1; K 2.4; L 1.99; M 1.12; Q 4.02; R 2.23; S 2.12; T 1.68; V 1.83; W 1.53; Y 2.88
W2: A 3.77; C 2.52; D 3.72; E 3.94; F 3.12; G 3.72; H 4; M 3.52; N 3.55; P 4.16; Q 3.96; S 3.25; T 3.83; V 3.26; Y 2.74
R3: A 3.58; C 2.76; D 3.62; E 3.75; F 1.97; G 3; H 2.85; I 2.32; L 2.69; M 2.44; N 3.83; P 3.06; Q 3.15; S 2.69; T 3.09; V 2.85; W 2.46; Y 1.76
Y4: A 3.42; C 2.6; D 3.13; E 4.67; F 2.45; G 4.34; H 3.39; I 2.63; L 2.36; M 2.16; N 3.32; P 3.85; Q 3.35; R 3.07; S 3.66; T 3.27; V 3.42; W 2.98
A5: C 1.05; D 3.2; E 2.82; F 2.43; H 3.69; I 1.39; K 3.36; L 2.66; M 3.05; N 2.95; P 1.48; Q 2.91; R 2.28; S 2.36; T 2.33; W 3.33; Y 2.94
T6: D 2.72; E 2.25; H 1.28; I 2.63; K 1.1; L 1.73; M 1.74; N 1.48; P 2.44; Q 1.6; R 1.51; S 1; V 2.11; W 1.65; Y 1.96
G7: A 2.94; C 2.08; E 3.17; F 2.64; H 2.22; I 2.11; K 2.39; L 1.89; M 1.81; N 2.13; P 2.19; Q 2.49; R 1.75; S 1.97; T 2.12; W 1.59; Y 2.12
G8: A 1.84; C 1.55; D 2.9; E 2.22; F 1.53; H 2.43; I 1.48; K 3.73; L 1.82; M 2.01; N 2.26; P 1.74; Q 1.98; R 1.41; S 2.4; T 2.47; W 2.51; Y 1.89
W9: D 2.33; E 2.79; F 1.41; G 1.96; H 2.73; I 2.22; K 2.06; L 2.29; M 1.72; N 2.27; P 2.95; Q 2.03; R 1.88; S 2.03; T 1.55; V 2.31; Y 2.32
E10: D 1.8; F 3.97; H 2.21; I 3.19; K 3.86; M 1.73; N 1.86; P 1.18; Q 1.2; R 2.49; S 1.86; T 1.63; V 1.02; Y 2.52
T11: C 1.78; D 2.2; E 2.86; F 1.48; G 1.97; H 1.69; I 3.25; K 1.68; L 2.12; N 1.9; P 2; Q 2.15; R 3.69; V 2.12; W 1.98; Y 4.5
V12: A 2.46; C 2; E 2.23; F 1.45; G 1.09; H 2.23; I 2.57; K 3.27; M 2.48; N 1.97; P 2.85; Q 2.56; R 2.08; S 1.97; T 1.69; W 1.26; Y 2.73
F13: A 3.91; C 2.15; D 3.66; E 3.2; H 2.99; I 1.66; K 3; L 2.28; M 2.28; N 2.78; P 3.54; Q 2.52; R 2.69; T 2.28; V 1.64; W 3.09; Y 1.55
R14: C 3.72; D 2.4; E 1.83; F 1.29; G 1.57; H 1.12; I 2.66; K 1.7; M 1.7; N 3.41; P 2.69; Q 1.77; S 1.01; T 3.45; V 1.55; W 1.6; Y 2.1
P15: D 3.23; G 2.05; I 2.35; K 2.03; L 2.1; N 1.95; Q 2.43; R 1.68; S 3.98; T 1.82; W 1.98; Y 1.27
V16: A 1.66; C 1.06; D 1.81; E 1.59; F 1.23; G 3.55; H 2.56; I 2.37; K 2.73; L 1.57; M 2.47; N 1.78; P 1.97; Q 2.28; R 1.19; T 1.61; W 2.01; Y 1.96
S17: A 2.34; C 3.15; D 2.33; F 2.77; G 3.4; H 1.85; I 1.28; M 1.28; N 2.29; Q 2.67; R 1.88; T 1.64; W 2.42; Y 1.53
E18: D 2.28; F 2.36; G 1.41; H 1.51; I 2.05; K 2.27; L 1.97; M 1.4; N 1.75; P 2.06; Q 1.54
